Reference: IntAct's records for PubMed 9045636

B1: Proto-oncogene tyrosine-protein kinase LCK (Mus musculus), P06240 (parent)
chain: MGCVCSSNPEDDWMENIDVCENCHYPIVPLDSKISLPIRNGSEVRDPLVTYEGSLPPASPLQDNLVIALHSYEPSHDGDLGFEKGEQLRILEQSGEWWKAQSLTTGQEGFIPFNFVAKANSLEPEPWFFKNLSRKDAERQLLAPGNTHGSFLIRESESTAGSFSLSVRDFDQNQGEVVKHYKIRNLDNGGFYISPRITFPGLHDLVRHYTNASDGLCTKLSRPCQTQKPQKPWWEDEWEVPRETLKLVERLGAGQFGEVWMGYYNGHTKVAVKSLKQGSMSPDAFLAEANLMKQLQHPRLVRLYAVVTQEPIYIITEYMENGSLVDFLKTPSGIKLNVNKLLDMAAQIAEGMAFIEEQNYIHRDLRAANILVSDTLSCKIADFGLARLIEDNEYTAREGAKFPIKWTAPEAINYGTFTIKSDVWSFGILLTEIVTHGRIPYPGMTNPEVIQNLERGYRMVRPDNCPEELYHLMMLCWKERPEDRPTFDYLRSVLDDFFTATEGQYQPQP

Variants of: B1
Settings: with khdr1_human KHDRBS1, Q07666
Sequence of khdr1_human KHDRBS1, Q07666 (Q07666 whole entry): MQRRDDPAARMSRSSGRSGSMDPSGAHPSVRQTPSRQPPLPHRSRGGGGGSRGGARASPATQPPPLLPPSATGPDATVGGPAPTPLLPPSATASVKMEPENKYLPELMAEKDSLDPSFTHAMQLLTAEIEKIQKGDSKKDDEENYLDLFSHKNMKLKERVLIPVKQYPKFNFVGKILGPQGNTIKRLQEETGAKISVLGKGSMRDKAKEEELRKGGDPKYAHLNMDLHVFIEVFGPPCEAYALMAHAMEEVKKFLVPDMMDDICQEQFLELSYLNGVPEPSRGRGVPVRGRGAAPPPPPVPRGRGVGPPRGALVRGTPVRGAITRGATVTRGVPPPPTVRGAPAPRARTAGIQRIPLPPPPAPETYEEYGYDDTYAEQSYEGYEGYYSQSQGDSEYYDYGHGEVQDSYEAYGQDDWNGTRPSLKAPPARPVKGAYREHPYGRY

Variant	effect of a mutation on the interaction
R154K	decreasing interaction

Variants of: B1
Settings: with khdr1_human KHDRBS1, Q07666
Remark: another data set of the same source

Variant	effect of a mutation on the interaction
P112K	decreasing interaction
